Measured values published in the nanobody polyreactivity screen of Harvey et al. (2022).

Assay: yeast display, Sf9 membrane polyspecificity reagent, FACS + sequencing; frameworks hold sequencing errors
In short: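 Using colony PCR, genes from sorted yeast display clones were amplified, then sequenced on MiSeq at 2 × 250 and filtered by CDR length. The clones had been stained with 10% biotinylated, detergent-solubilized Sf9 membrane reagent for 1 hour at 4 °C and sorted by FACS into low and high (top ~1%) gates on anti-HA and streptavidin fluorescence. Polyreactivity labels come from the gate of origin.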

Row | Sequence | polyreactivity (PSR sort gate)
1 | QVQLVESGGGLVQAGGSLRLSCAASGRIFSYYDMGWYRQAPGKERELVAAITWGGGSTYYADSLKGRFTISRDNAKNTVYLHMNSLKPEDNAVFYSAADWSPSIWEYDYWGQGTEVTVSS | low polyreactivity
2 | QVQLVESGGGLVQAGGSLRLSCAASGRIFSYYGMGWYRQAPGKERELVAAITWRGSTTNYADSVKGRFTISRDNAKNTVYLQMNSLKPEDTAVYYCAPLHSAGYAYDYWGQGTQVTVSS | high polyreactivity
3 | QVQLVESGGGLVQAGGSLRLSCAASGRIFSYYTMGWYRQAPGKERELVAAISSGGSTNYADSVKGRFTISRDNAKNTVYLQMNSLKPEDTAVYYCAVRSGRRNYDRPAFGYWGQGTQVTVSS | high polyreactivity
4 | QVQLVESGGGLVQAGGSLRLSCAASGRIFSYYTMGWYRQAPGKERELVAAITASDGDTYYADSVKGRFTISRDNAKNTVYLQMNSLKPEDTAVYYCNAELFSVNGYDYWGQGTQVTVSS | low polyreactivity
5 | QVQLVESGGGLVQAGGSLRLSCAASGRIFTAYAMGWYRQAPGKERELVAAISSGDSTYYADSVKGRFTISRDNAKNTVYLQMNSLKPEDTAVYYCATGVYPDFEYDSWGQGTQVTVSS | low polyreactivity
6 | QVQLVESGGGLVQAGGSLRLSCAASGRIFTAYAMVWYRPAPGKERELVAAISSGDSTYYADSVKGRFTISRDNAKNTVYLQKNSLKPEETAVYSCATGVYPDFEYDSWGQGTQVTVSS | low polyreactivity
7 | QVQLVESGGGLVQAGGSLRLSCAASGRIFTDYAMAWYRQAPGKEREFVAAINKSGGSTYYADSVKGRFTISRDNAKNTVYLEMNSLKPEDTAVYYCAKSLGQTDWEYDSWGQGTQVTVSS | low polyreactivity
8 | QVQLVESGGGLVQAGGSLRLSCAASGRIFTDYDMGGYRHAPGKERELVASISGSDGNTDYADSVKGRFTISRDNAKNTVYLQMNSLKPEDTAVYYCAADLRVYDFFRYPETYGYWGQGTQVTVSS | low polyreactivity
9 | QVQLVESGGGLVQAGGSLRLSCAASGRIFTFNAMGWYRQAPGKERELVAAGSTYYADSVKGRFTISRDNAKNTVYLQMNSLKPEDTAVYYCAVEDLGSEGWGWYKEMDYWGQGTQVTVSS | low polyreactivity
10 | QVQLVESGGGLVQAGGSLRLSCAASGRIFTFYAMGWYRQAPGKARELVASITGGGNTYYADSVKGRFTISRDNAKNTVYLQMNSLKPEDTAVYYCNADEWRWDEIIPYAVDYWGQGTQVTVSS | low polyreactivity
11 | QVQLVESGGGLVQAGGSLRLSCAASGRIFTGNALGWYRQAPGKESELVAAITRNGGSTYYADSVKGRFTLSRDNAKNTVYVQMNSLKPEDTAVYYCAAKLSPVYYRRYDYWGQGTQVTVSS | high polyreactivity
12 | QVQLVESGGGLVQAGGSLRLSCAASGRIFTGNVMGWYRQAPGKERELVAAISRRGGGTYYADSVKGRFTISRDNAKNTVYLQMNSLKPEDTAVYYCAAQYRSQGQPKGGVLYYYWGQGTQVTVSS | high polyreactivity
13 | QVQLVESGGGLVQAGGSLRLSCAASGRIFTGNVMGWYRQAPGKERELVAAITYRRGSTYYADSVKGRFTISRDNAKNTVYLQMNSLKPEDSAVYYCNTGWDPYGYDYWGQGTQVTVSS | low polyreactivity
14 | QVQLVESGGGLVQAGGSLRLSCAASGRIFTGYAMGWYRQAPGKERELVASITWRGGSTSYADSVKGRFTISRDNAKNTVYLQMNSLKPEDTAVYYCAAQKWYYPYYWGQGTQVTVSS | high polyreactivity
15 | QVQLVESGGGLVQAGGSLRLSCAASGRIFTGYDMGWYRQAPGKERELVAAISRGGSTNYADSVKGRFTISRDNAKNTVYLQMNSLKPEDTAVYYCADGVHWDRGDYWVQGTQVTVSS | low polyreactivity
16 | QVQLVESGGGLVQAGGSLRLSCAASGRIFTHNAMGWYRQAPGKEREVVAAISYSGVSTYYADSVKGRFTISRDNAKNTVYLQRNSLNTDDTAVYFCARRYWYPDAFYRYDYWGQGTPVTVSS | low polyreactivity
17 | QVQLVESGGGLVQAGGSLRLSCAASGRIFTHYAMGWYRQAPGKERELVASISWSGGSTNYADSVKGRFTMSRDNAMNTVYLQMNSLKPEDTAVYYCARKYRYLFATFDYWGQGTQVTVSS | high polyreactivity
18 | QVQLVESGGGLVQAGGSLRLSCAASGRIFTIYAMGWYRQAPGKERELVAAITRGGNTNYADSVKGRFTISRDNAKNTVYLQMNSLKPEDTAVYYCAARANVYTKKRDYWGQGTQVTVSS | high polyreactivity
19 | QVQLVESGGGLVQAGGSLRLSCAASGRIFTKNTMGWYRQAPAQERELVAAIRSRAGSTYYADSVKGRFTISRDNEKNTVYLQMNSLKPEDTAVYYCAVRWFRSVDFDYWGQGTQVTVSS | low polyreactivity
20 | QVQLVESGGGLVQAGGSLRLSCAASGRIFTKYAMGWYRQAPGKERELVAAISQIGGSTYYADSVKGRFTISRDKAKNTVYLQMNSLKPEDTAVYYCAARWREASYRYENWGQGTQVTVSS | high polyreactivity
21 | QVQLVESGGGLVQAGGSLRLSCAASGRIFTKYAMGWYRQAPGKERELVAAITTSGGSTYYADSVKGRFTISRDNAKNTVYLQMNSLKPEDTAVYYCAARTYHRYDYWGQGTQVTVSS | high polyreactivity
22 | QVQLVESGGGLVQAGGSLRLSCAASGRIFTLYAMGWYRQAPGTERELVAAITYTGANTYYADSVKGRFTISRDNAKNTVYLQMNSLKPEDTAVYYCAASGYYYDYWGQGTQVTVSS | high polyreactivity

Row | Sequence | polyreactivity (PSR sort gate)
23 | QVQLVESGGGLVQAGGSLRLSCAASGRIFTLYTMGWYRQAPGKERELVAAISSSGGRTYYADSVKGRFTISRDNAKNTVYLQMNSLKPEDTAVYYCNAGYWYYGQDDYWGQGTQVTVSS | high polyreactivity
24 | QVQLVESGGGLVQAGGSLRLSCAASGRIFTNYAMGWYRPAPGKEREYVAAISWSGGSTYYADSVKGRFTISRDNAKNTVYLQMNSLKPEYTAVYYCAAVGYAGLPYGLRPNNSGYWGQGTQVTVSS | low polyreactivity
25 | QVQLVESGGGLVQAGGSLRLSCAASGRIFTNYVMGWYRQAPGKERELVAAISKSGSRTYYADSVKGRFTISRDNAKNTVYLQMNSLKPEDTAVYYCAKVDTPGSQRYITPDEGPEYEYWGQGTQVTVSS | high polyreactivity
26 | QVQLVESGGGLVQAGGSLRLSCAASGRIFTQNAMGWYRQAPGKERELVAAITSGGSTYYADSVKGRFTISRDNAKNTVYLQMNSLKPEDTAVYYCAAEYGTYFVRYYAGASYRYGYWGQGTQVTVSS | low polyreactivity
27 | QVQLVESGGGLVQAGGSLRLSCAASGRIFTQNAMGWYRQAPGKERELVAAITSGGSTYYADSVKGRFTISRDNAKNTVYLQMNSLKPEDTAVYYCAKRYPYYLSTMEYWGQGTQVTVSS | low polyreactivity
28 | QVQLVESGGGLVQAGGSLRLSCAASGRIFTQYAMGWYRPAPGKERELVAAINASDGSTYADSVKGRFTISRDNAKNTVYLQMNSLKPEDPAVYYCNVTGGPYDFTRWSEFDHWGQGTQVTVSS | low polyreactivity
29 | QVQLVESGGGLVQAGGSLRLSCAASGRIFTQYTMGCYRQAPGKERELVAAINYSGGRTNYADSVKGRFTISRDNAKNTVYLQMNSLKPEDTAVYYCAAGYRRATYGYWGQGTQVTVSS | high polyreactivity
30 | QVQLVESGGGLVQAGGSLRLSCAASGRIFTRNAMGWYRQAPGKEREFVAAISWSGGSTYYADSVKGRFTISRDNAKNTVDLQMNSLKPEDTAVYYCSAKNSGGYVSWYDYWGQGTQVTVSS | low polyreactivity
31 | QVQLVESGGGLVQAGGSLRLSCAASGRIFTRYAMGWYREAPGKERELVAAIRIGDSTNYADSVKGRFTISRDNAKNTVYLQMNSLKPEDTAVYDCAAYLPRRRYYYWGQGTQVTVSS | high polyreactivity
32 | QVQLVESGGGLVQAGGSLRLSCAASGRIFTRYAMGWYRQAPGKERELVAVITRSGGSTYYADSVKGRFTISRDNAKNNVDLQMNSLKPEDTAVYYCAAKYYGEMYYWGQGTQVTVSS | low polyreactivity
33 | QVQLVESGGGLVQAGGSLRLSCAASGRIFTSNAMGWYRLAPGKERELVAAISSSSGSTYYADSVKGRFTISRDNAKNTVYLQMNSLKPEDTAVYYCAARTWRVSGTYKYDYWGQGTQVTVSS | low polyreactivity
34 | QVQLVESGGGLVQAGGSLRLSCAASGRIFTSYVMGWYRQAPGKERELVAAITWGGSTKYADSVKGRFTISRVNAKNTVYLQMNSLKPEDTAVYYCAADGGEYYKGFFAVPYGYWGQGTQVTVSS | low polyreactivity
35 | QVQLVESGGGLVQAGGSLRLSCAASGRIFTTYAMGWYRQAPGKEMELVAAIDYSDGSTYYADSVKGRFTISRDNAKNTVYLQMNSLNPEDTAVYYCAADGTYVWGSEEGNYWGQGTQVTVSS | low polyreactivity
36 | QVQLVESGGGLVQAGGSLRLSCAASGRIFTVNAMGWYRQAPGKERELVASITGRGTRTYYADSVKGRFTISRDNAKNTVYLQMNSLKPEDTAVYYCAAAVARVKYDSKGYYWGQGTQVTVSS | high polyreactivity
37 | QVQLVESGGGLVQAGGSLRLSCAASGRIFTVYALGWSRQAPGKERELVAAISRGRSTYADSVKGRFTISRDNAKNTVYLQLNSLKPEDTGVYYCAAVNFRKGEDYWGQGTQVTVSS | high polyreactivity
38 | QVQLVESGGGLVQAGGSLRLSCAASGRIFTVYGMGWYRQAPGKERELVAAISWSGGGTYYADSVKGRFTISRDNAKNTVYLHMNSLKPEDTAVYYCNADRQYTWSLVFFSSDYDYWGQGTQVTVSS | low polyreactivity
39 | QVQLVESGGGLVQAGGSLRLSCAASGRIFTWNARGWYRQAPGKERELVARISSGTRTNYADSVKGRFTISRDNAKNTVYLQMYSLKPEDTAVYYCAAAAKRTDAYHNRRYYWGQGTQVTVSS | high polyreactivity
40 | QVQLVESGGGLVQAGGSLRLSCAASGRIFTWYAMGWYRQAPGKERELVAVISSGGSTYYADSVKGRFTISRDNAKNTVYLQMNSLKPEDTAVYYCAARRSYYGRSYYYWGQGTQVTVSS | high polyreactivity
41 | QVQLVESGGGLVQAGGSLRLSCAASGRIFTYNAMGWYIQAPGKERELVAAISSSVGSTYYADSVKGRFTISRDNAKNTVYLQMNSLKPEDTAVYYCAAYSYRNLRFYYWGQGTQVTVSS | high polyreactivity
42 | QVQLVESGGGLVQAGGSLRLSCAASGRIFTYNARGWYRQAPGKERELVAAITYRGSSTYYADSVKGRFTISRDIAKNTVYLQMNSLKAEDTAVYYCAAVFSGFYYAYDYWGQGTQVTVSS | high polyreactivity
43 | QVQLVESGGGLVQAGGSLRLSCAASGRIFTYNTMGWYRQATGKEREFVASITYSGSSTYYADSVKGRFTISRDNAKNTVYLQMNSLKPEDTAVYYCATRYGYSDGDYWGQRTQVTVSS | low polyreactivity
